Kd data for one molecule are collected here from patent CN112480250A (UNIV SHANGHAI JIAOTONG, dated 2021).

The target in this assay is 重组人OPN-R (OPN-N端蛋白, 重组骨桥蛋白N端活性结构域 osteopontin I17-R167) (human). In words: ForteBio BLI, biotinylated OPN-R on streptavidin sensor, antibody at 50-300 nmol/L, 1:1 model. For orientation: Biolayer interferometry detects binding as a change in optical thickness at a sensor tip.
重组人OPN-R (OPN-N端蛋白, 重组骨桥蛋白N端活性结构域 osteopontin I17-R167) (human), sequence (chain, as listed by the source): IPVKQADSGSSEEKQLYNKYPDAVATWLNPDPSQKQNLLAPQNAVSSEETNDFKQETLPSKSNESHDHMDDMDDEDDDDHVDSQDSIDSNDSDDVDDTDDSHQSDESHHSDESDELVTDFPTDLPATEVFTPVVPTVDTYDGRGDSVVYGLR

B1: 抗OPN嵌合抗体(抗体72B) (antibody, V domains shown)
VH: EVMLVESGGGLLKPGGSLKLSCAASGFTFSSYAMSWVRQTPEKRLEWVATITSGGSYTNYSDSVKGRITISRDNAKNTLYLQMSSLRSEDTAMYYCAREGPAWFAYWGQGTLVTVSA
VL: DIVMTQTPLSLPVSLGDQASISCRSSQSIVHSNGNTYLEWYLQKPGQSPKLLIYKVSNRFSGVPDRFSGSGSGTDFTLKISRVEAEDLGVYYCFQGSHVPPTFGGGTKLEIKR
notes: Mouse/human IgG1 chimera made by overlap PCR and expressed in HEK293E; also called 72B抗体; OPN-Ab(72B)
Usually Kd stands for a measure of binding affinity in units of concentration. A lower Kd goes with higher affinity. In turn, B1 yielded a Kd of 4.55 nM.
